The target of experiment [1] is RBDSARS-CoV-2 (SARS-CoV-2 S protein residues 319-539, C-terminal His-tag) (SARS-CoV-2, UniProt P0DTC2 319-539). Description: ELISA. A general note: An ELISA detects its analyte on a solid surface through an enzyme-linked reagent.
In experiment [2] the target is RBDSARS-CoV (SARS-CoV S protein residues 318-510, C-terminal His-tag) (SARS-CoV, UniProt P59594 318-510). Put plainly: ELISA.

The IC50 is the midpoint of a concentration-inhibition curve. A higher IC50 goes with lower potency.

B1: R37 (VHH)
VHH: QVQLVESGGGLVQTGGSLRLSCAASGRTFSNYVMGWFRQAPGKEREFVSSIEWNSENTFYANSVKGRFTISRDNAKNTVYLQMNSLKAEDTAVYYCAADRGSSYYYTRASEYTYWGQGTQVTVSS
As for B1, the half-inhibitory concentration (IC50) in experiment [1] and in experiment [2] was < 10 nM each time.

B2: 4P-85 (VHH)
VHH: QVQLVESGGGLVQAGGSLRLSCAVSGRTVSTYGMAWFRQTPGKKERDFVATITRSEGTTFYADSVKGRFTISRDNAKNTVYLQMNSLKIEDTAVYYCAVRRDSSWGYSRDLFEYDDWGQGTQVTVSS
Consider B2, for which the concentration for half-maximal inhibition (IC50) in experiment [1] and in experiment [2] was < 10 nM throughout.

B3: 4P-17 (VHH)
VHH: HVQLVESGGGLVQAGASLRLSCAASGRTASNYVMGWFRQAAGKEREFVAHISWSGDETNYADSVRGRFIISRDNAENTVYLQMNSLKPEDTAVYYCAADRGYSLMYYSSREYTYWGQGTQVTVSS
With B3, the IC50 in experiment [1] was < 10 nM; in experiment [2], 1000 to 8000 nM.

B4: 5p-18 (VHH)
VHH: EVQLVESGGGLVQAGGSLRLSCEASGRTFSSYAMGWFRQAPGKEREFVAAISQGGSTDYGDSTKGRFTISRDNAKNTVYLQMNSLKPEDTAVYYCAADQTPLRYAYSTRSQDYDYWGQGTQVTVSS
Consider B4, for which the 50% inhibitory concentration (IC50) in experiment [1] and in experiment [2] was < 10 nM in each case.

B5: 4P-61 (VHH)
VHH: QVQLVESGGGLVQAGGSLRLSCAASGSTFNTRNIAWYRQAPGKQRELVAGITNAGATIYADSVKGRFTISRDNAKNTMYLQIDSLKPEDTAVYYCNRIVGTYPWGQGTQVTVSS
As to B5, the IC50 in experiment [1] was < 10 nM; in experiment [2], 10 to 100 nM.

B6: 5p-23 (VHH)
VHH: HVQLVESGGGLVQAGDSLRLSCAASGGTFSSYAMGWFRQVPGKEREFVAAISRGGSTDYADSVKGRFTISRDNAKNTVNLQMNSLKPEDTAVYYCAADRSPLFWGMSQSHGEYDYWGQGTQVTVSS
Regarding B6, the figures for the IC50 in experiment [1] and in experiment [2] were < 10 nM and 10 to 100 nM, respectively.

B7: 4P-19 (VHH)
VHH: HVQLVESGGGLVQAGGSLRLSCAASGRTVSSEFMGWFRQAPGKEREFVAAITWDGGSTYYTDSVKGRFTISRDNAKNTVYLQMNSLKPEDTAVYYCAADRSIFQSYYSAKYPNNYEYWGQGTQVTVSS
Take B7: the IC50 in experiment [1] is < 10 nM; in experiment [2], 100 to 1000 nM.

B8: R113 (VHH)
VHH: HVQLVESGGGLVQPGGSLRLSCAASGRSFNSYLMGWFRQAPGKEREFVAWISGSPHDIIRYRDSVKDRFTISRDNAKNTVYLQMNSLKPVDTAVYYCAVGSLRVGSFSPDYWGQGTQVTVSS
Regarding B8, the values for the IC50 in experiment [1] and in experiment [2] were < 10 nM and 10 to 100 nM, respectively.

B9: R117 (VHH)
VHH: HVQLVESGGGLVQAGGSLRLSCAAPGRTFSTSAMGWFRQAPGKEREFVAAIDWSNTNIHYADTVKGRFTISTDTAKNTVYLQMNNLKPEDTAVYYCAQGGWGLTQPISVDYWGKGTQVTVSS
On to B9, for which the IC50 in experiment [1] was < 10 nM; in experiment [2] it was 100 to 1000 nM.

B10: 4P-21 (VHH)
VHH: HVQLVESGGGLAQAGGNLRLSCAASGGTFSDYAMGWFRRPPGKEREFVAAISRGGSTFYADSVKGRFTISRDNAKNTVYLQMTSLKPEDTAVYYCAADRSPLFFGVPRSHGEYDYWGQGTQVTVSS
On to B10, for which the IC50 in experiment [1] and in experiment [2] was < 10 nM each time.

B11: 4P-76 (VHH)
VHH: EVQLVESGGGLVQAGDSLRLSCAASERTGINYAMGWFRQAPGKERDFVAAIGWNGSITKYAESVKGRFTLSRDDAMNTVSLQMNSLKPEDTAVYYCAARIGSIANLQYREYEFAYWGQGTQVTVSS
Take B11: the IC50 in experiment [1] was in the range of 10 to 100 nM; in experiment [2] it was 1000 to 8000 nM.

B12: 4P-26 (VHH)
VHH: QVQLVESGGGLVQAGGSLRLSCAASGDTLRSYNMGWFRQAPGKEREFVAVISWTGVGTYYGDSVKGRFTISRDVIKNTLYLQMDSLKPEDTAIYYCAADSTTYRLHSAGSDYLYWGQGTQVTVSS
Regarding B12, the values for the IC50 in experiment [1] and in experiment [2] were < 10 nM and > 8000 nM, respectively.

B13: 4P-89 (VHH)
VHH: HVQLVESGGGLVQAGGSLRLSCAASGRTLTTYSMAWFRQAPGKEREVVAAITPTGFGTYYADFVKGRFTISRNSAKNTVYLQMDSLKPEDTAVYYCAARSEIIIASPTGGEYDYWGQGTQVTVSS
As for B13, the values for the IC50 in experiment [1] and in experiment [2] were < 10 nM and 10 to 100 nM, respectively.

B14: 5p-15 (VHH)
VHH: QVQLVESGGGLVQPGDSLRLACAASGGTFGYYALGWFRQAPGKEREFVGSITQTGFGTKYADAVKGRFTISRDNAKNTMYLQMNSLKPEDTAVYYCAADPTAQNMGIRDPPYWGQGTQVTVSS
Consider B14, for which the IC50 in experiment [1] and in experiment [2] was 10 to 100 nM each time.

B15: 4P-32 (VHH)
VHH: DVQLVESGGGLVQAGGSLRLTCAASGRTFSSDTMDMGWFRQAPGKERQFVAADAWNDGRTYYADSVKGRFTISRDNAKNTLYLQMNSLKPEDTAVYYCAADTYSNYEKDYSWGYWGQGTQVTVSS
Consider B15, for which the IC50 is < 10 nM in experiment [1] and 1000 to 8000 nM in experiment [2].

B16: 4P-74 (VHH)
VHH: HVQLVESGGGLVQAGGSLRLSCATSGRTFSTYRMSWFRQAPGKEREFVATIIWSVGSTHYADSVKGRFTISRDNAKNMVYLQMNSLKPEDTAVYYCAAQRSDSSSWGYEDDYDYWGQGTQVTVSS
For B16, the IC50 was < 10 nM in experiment [1] and > 8000 nM in experiment [2].

B17: 5p-20 (VHH)
VHH: HVQLVESGGGLVQAGGSLRLSCAASGGTFSAYAMGWFRQVPGKEREFVAGIARSGSDYYGDSVKGRFIISRDNTKNTVYLQMNSLKAEDTGVYYCAADRAILYHGLSQRTQAYAYWGPGTQVTVSS
With B17, the IC50 was < 10 nM in experiment [1] and 100 to 1000 nM in experiment [2].

B18: R58 (VHH)
VHH: QVQLVESGGGLVQAGGSLRLSCAASGRDFSSTVMGWFRQAPGKERELVAWMTVTYDITYYADSVKGRFTISKDNAKNTVYLQANSLKPDDTAVYYCASGALRVGSFSPDYWGQGTQVTVSS
Take B18: the half-inhibitory concentration (IC50) in experiment [1] was 10 to 100 nM; in experiment [2] it was 1000 to 8000 nM.

B19: 4P-56 (VHH)
VHH: QVQLVESGGGLVQAGGSLRLSCAASGRTDSISDMGWFRQAPGKEREFVAVVGWSGGGTDYAHSVKGRFTISRDNAKNTVYLQMNSLKPEDTAVYYCAVGSLRVGSFSVEYWGQGTQVTVSS
notes: class IV psNb
On to B19, for which the half-maximal inhibitory concentration (IC50) is < 10 nM in experiment [1] and 10 to 100 nM in experiment [2].

B20: 4P-28 (VHH)
VHH: QVQLVESGGGLVQAGGSLRLSCAASGRTFSHYPTGWFRQAPGKEREFVSTISESGTSTYYADSVKGRFTISRDNAKNSVYLQMNSLKPEDTALYYCAADTAGRTQYGSSWSTLDGFVYWGQGTQVTVSS
For B20, the IC50 is 10 to 100 nM in experiment [1] and 1000 to 8000 nM in experiment [2].

For the origin of these results see patent publication US20250002563A1 (UNIVERSITY OF PITTSBURGH OF THE COMMONWEALTH SYSTEM OF …, published 2025).
